Series [1] concerns the target T1, Cel1A (Bgl II) (Trichoderma reesei, UniProt O93785, L2V/L167W/P172L).
T1 construct: gene bgl2; forward primer with NcoI site encodes N-terminus MVPKDFQW; GH1
T1 sequence (O93785 1-466 L2V/L167W/P172L): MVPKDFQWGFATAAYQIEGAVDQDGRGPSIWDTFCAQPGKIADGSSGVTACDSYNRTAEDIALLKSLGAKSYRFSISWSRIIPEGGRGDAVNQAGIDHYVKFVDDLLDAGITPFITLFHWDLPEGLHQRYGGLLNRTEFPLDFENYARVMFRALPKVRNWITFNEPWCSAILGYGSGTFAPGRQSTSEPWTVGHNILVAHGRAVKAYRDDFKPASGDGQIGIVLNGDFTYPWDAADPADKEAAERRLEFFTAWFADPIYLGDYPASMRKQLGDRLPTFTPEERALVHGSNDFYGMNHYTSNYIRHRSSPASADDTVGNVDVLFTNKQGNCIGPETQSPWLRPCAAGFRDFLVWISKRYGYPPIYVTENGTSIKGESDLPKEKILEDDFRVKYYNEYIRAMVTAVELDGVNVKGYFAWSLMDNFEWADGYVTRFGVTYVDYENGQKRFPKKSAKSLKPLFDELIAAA
As to the kind of experiment: Dixon plot, pNPG hydrolysis, p-nitrophenol absorbance […] nm. As to conditions: pNPG substrate (low concentrations), 100 mM acetate pH 5.5, 30°C; competitive; glucose also stimulates at higher pNPG; read-out: WT. In kind it is biochemical.

Series [2] concerns the target T2, Cel1A (Bgl II) (Trichoderma reesei, UniProt O93785, L2V).
T2 construct: gene bgl2; forward primer with NcoI site encodes N-terminus MVPKDFQW; GH1
T2 sequence (O93785 1-466 L2V): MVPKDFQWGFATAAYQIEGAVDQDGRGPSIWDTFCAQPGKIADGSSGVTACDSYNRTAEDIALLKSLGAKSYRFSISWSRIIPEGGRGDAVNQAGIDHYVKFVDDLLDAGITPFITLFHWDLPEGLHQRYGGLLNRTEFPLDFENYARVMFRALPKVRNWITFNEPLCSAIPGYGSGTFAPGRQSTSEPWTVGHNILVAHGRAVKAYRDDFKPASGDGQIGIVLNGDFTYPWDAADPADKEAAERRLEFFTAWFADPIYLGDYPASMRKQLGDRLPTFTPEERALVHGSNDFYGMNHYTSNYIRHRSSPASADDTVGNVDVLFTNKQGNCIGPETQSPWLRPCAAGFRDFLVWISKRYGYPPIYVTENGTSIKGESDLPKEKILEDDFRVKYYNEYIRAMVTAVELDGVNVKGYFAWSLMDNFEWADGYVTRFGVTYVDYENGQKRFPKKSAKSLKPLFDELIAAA
The series is described as above. To be noted: pNPG substrate (low concentrations), 100 mM acetate pH 5.5, 30°C; competitive; read-out: WT. The format is biochemical.

Substrate in the series “purified protein”: O=[N+]([O-])c1ccc(O[C@@H]2O[C@H](CO)[C@@H](O)[C@H](O)[C@H]2O)cc1
As to the kind of experiment: purified protein. In kind it is biochemical, Trichoderma reesei. To be noted: 100 mM acetate pH 5.5, 30°C, no glucose.

Where [3] appears, read: substrate inhibition above 0.25 mM pNPG.

On to `OC[C@H]1OC(O)[C@H](O)[C@@H](O)[C@@H]1O` (stereo partly drawn) [glucose], for which the Ki at Cel1A (Bgl II) [1] and on Cel1A (Bgl II) [2] was 50 mM throughout.

B1: Cel1A (Bgl II) (Trichoderma reesei; L167W/L2V/P172L) (protein)
chain: MVPKDFQWGFATAAYQIEGAVDQDGRGPSIWDTFCAQPGKIADGSSGVTACDSYNRTAEDIALLKSLGAKSYRFSISWSRIIPEGGRGDAVNQAGIDHYVKFVDDLLDAGITPFITLFHWDLPEGLHQRYGGLLNRTEFPLDFENYARVMFRALPKVRNWITFNEPWCSAILGYGSGTFAPGRQSTSEPWTVGHNILVAHGRAVKAYRDDFKPASGDGQIGIVLNGDFTYPWDAADPADKEAAERRLEFFTAWFADPIYLGDYPASMRKQLGDRLPTFTPEERALVHGSNDFYGMNHYTSNYIRHRSSPASADDTVGNVDVLFTNKQGNCIGPETQSPWLRPCAAGFRDFLVWISKRYGYPPIYVTENGTSIKGESDLPKEKILEDDFRVKYYNEYIRAMVTAVELDGVNVKGYFAWSLMDNFEWADGYVTRFGVTYVDYENGQKRFPKKSAKSLKPLFDELIAAA
notes: forward primer with NcoI site encodes N-terminus MVPKDFQW; GH1
The Km is the substrate concentration at which the rate is half of its maximum. A word on the Vmax: it is the rate approached at saturating substrate. As to B1, in “purified protein” (setting [3]), the Km turned out to be 230 ± 10 µM and the Vmax came to 13.3 µmol/min/mg.

B2: Cel1A (Bgl II) (Trichoderma reesei; L2V) (protein)
chain: MVPKDFQWGFATAAYQIEGAVDQDGRGPSIWDTFCAQPGKIADGSSGVTACDSYNRTAEDIALLKSLGAKSYRFSISWSRIIPEGGRGDAVNQAGIDHYVKFVDDLLDAGITPFITLFHWDLPEGLHQRYGGLLNRTEFPLDFENYARVMFRALPKVRNWITFNEPLCSAIPGYGSGTFAPGRQSTSEPWTVGHNILVAHGRAVKAYRDDFKPASGDGQIGIVLNGDFTYPWDAADPADKEAAERRLEFFTAWFADPIYLGDYPASMRKQLGDRLPTFTPEERALVHGSNDFYGMNHYTSNYIRHRSSPASADDTVGNVDVLFTNKQGNCIGPETQSPWLRPCAAGFRDFLVWISKRYGYPPIYVTENGTSIKGESDLPKEKILEDDFRVKYYNEYIRAMVTAVELDGVNVKGYFAWSLMDNFEWADGYVTRFGVTYVDYENGQKRFPKKSAKSLKPLFDELIAAA
notes: as for B1
Regarding B2, in “purified protein”, the Km came out at 2480 ± 750 µM and the maximal velocity (Vmax) was found to be 7.7 µmol/min/mg.

For the origin of these results see PMC4720395, “Improvements in Glucose Sensitivity and Stability of Trichoderma reesei β-Glucosidase Using Site-Directed Mutagenesis” (PLoS ONE, 2016).
